Test results published in US8349320 (LA JOLLA INSTITUTE FOR ALLERGY AND IMMUNOLOGY, dated 2013).

T1: mouse BTLA expressed on cells (mouse, UniProt Q7TSA3 30-306)
T1 construct: whole, on cells; the GFP part is not described further; also called mBTLA
T1 sequence (looked up): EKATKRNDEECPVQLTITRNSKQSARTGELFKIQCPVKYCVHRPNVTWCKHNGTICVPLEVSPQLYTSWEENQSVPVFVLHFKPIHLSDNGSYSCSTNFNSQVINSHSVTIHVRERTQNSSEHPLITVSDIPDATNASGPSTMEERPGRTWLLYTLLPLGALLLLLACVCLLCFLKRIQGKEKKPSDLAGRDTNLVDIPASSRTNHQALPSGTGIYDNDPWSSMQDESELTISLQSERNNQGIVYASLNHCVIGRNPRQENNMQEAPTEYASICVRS


Legend:
[1] = target: T1, mouse BTLA expressed on cells; test: flow cytometry, graded hHVEM-Fc on cells expressing mouse BTLA (FIG. 3A)
[2] = target: T2, full length human LIGHT expressed on EL4 cells (human, UniProt O43557 1-240); test: flow cytometry saturation binding, Fc fusion on EL4 cells expressing human LIGHT
T2 construct: whole, on cells; also called EL4-hLIGHT; hLIGHT-EL4 cells

[3] = target: T3, human BTLA expressed on cells (human, UniProt Q7Z6A9 31-289); test: flow cytometry saturation binding, Fc fusion on cells expressing human BTLA (FIG. 3A)
T3 construct: whole, on cells; also called hBTLA

[4] = target: T3, human BTLA expressed on cells; test: flow cytometry saturation binding, Fc fusion on cells expressing human BTLA (FIG. 3B)
[5] = target: T1, mouse BTLA expressed on cells; test: flow cytometry saturation binding, Fc fusion on cells expressing mouse BTLA (FIG. 3B)

T2 sequence (O43557 whole entry, the tested form may be a part): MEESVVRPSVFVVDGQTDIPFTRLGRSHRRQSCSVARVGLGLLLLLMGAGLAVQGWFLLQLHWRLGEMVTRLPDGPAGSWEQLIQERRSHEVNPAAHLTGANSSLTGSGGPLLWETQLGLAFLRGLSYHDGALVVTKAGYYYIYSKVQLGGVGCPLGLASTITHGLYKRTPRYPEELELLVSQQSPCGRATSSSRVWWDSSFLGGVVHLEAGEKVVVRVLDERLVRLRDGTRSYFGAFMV

Row | Binder | binding result [1] | Kd [2] [nM] | Kd [3] [nM] | Kd [4] [nM] | Kd [5] [nM]
1 | human HVEM-Fc (Fc fusion, UniProt Q92956 39-202, looked up, in the FIG. 3H assay biotinylated with NHS-PEO4-Biotin, 2 biotin molecules per HVEM-Fc (sites not given), extracellular domain; Ecto domain of the TNFR fused to Fc of human IgG1; also called hHVEM-Fc; hHVEM:Fc; not shown: Fc region of human IgG1) LPSCKEDEYPVGSECCPKCSPGYRVKEACGELTGTVCEPCPPGTYIAHLNGLSKCLQCQMCDPAMGLRASRNCSRTENAVCGCSPGHFCIVQDGDHCAACRAYATSSPGQRVQKGGTESQDTLCQNCPPGTFSPNGTLEECQHQTKCSWLVTKAGAGTSSSHWV | no binding | 11 | 112 | – | –
2 | mouse HVEM-Fc (Fc fusion, UniProt Q80WM9 39-206, looked up, extracellular domain; Expressed in insect cells (baculovirus); also called mHVEM-Fc; mHVEM:Fc; not shown: Fc region of human IgG1) QPSCRQEEFLVGDECCPMCNPGYHVKQVCSEHTGTVCAPCPPQTYTAHANGLSKCLPCGVCDPDMGLLTWQECSSWKDTVCRCIPGYFCENQDGSHCSTCLQHTTCPPGQRVEKRGTHDQDTVCADCLTGTFSLGGTQEECLPWTNCSAFQQEVRRGTNSTDTTCSSQ | – | – | – | 27 | 24
